Source: patent US20230183314A1

Assays:
[1] = target: human prostate specific membrane antigen (PSMA) (human) (UniProt Q04609); test: flow cytometry, 22Rv1 cells (low PSMA expression) stained with the PE conjugate; number printed over the white bar
[2] = target: human prostate specific membrane antigen (PSMA) (human) (UniProt Q04609); test: flow cytometry, LNCaP cells (high PSMA expression) stained with the PE conjugate; number printed over the white bar

Sequence of human prostate specific membrane antigen (PSMA) (human) (Q04609 whole entry): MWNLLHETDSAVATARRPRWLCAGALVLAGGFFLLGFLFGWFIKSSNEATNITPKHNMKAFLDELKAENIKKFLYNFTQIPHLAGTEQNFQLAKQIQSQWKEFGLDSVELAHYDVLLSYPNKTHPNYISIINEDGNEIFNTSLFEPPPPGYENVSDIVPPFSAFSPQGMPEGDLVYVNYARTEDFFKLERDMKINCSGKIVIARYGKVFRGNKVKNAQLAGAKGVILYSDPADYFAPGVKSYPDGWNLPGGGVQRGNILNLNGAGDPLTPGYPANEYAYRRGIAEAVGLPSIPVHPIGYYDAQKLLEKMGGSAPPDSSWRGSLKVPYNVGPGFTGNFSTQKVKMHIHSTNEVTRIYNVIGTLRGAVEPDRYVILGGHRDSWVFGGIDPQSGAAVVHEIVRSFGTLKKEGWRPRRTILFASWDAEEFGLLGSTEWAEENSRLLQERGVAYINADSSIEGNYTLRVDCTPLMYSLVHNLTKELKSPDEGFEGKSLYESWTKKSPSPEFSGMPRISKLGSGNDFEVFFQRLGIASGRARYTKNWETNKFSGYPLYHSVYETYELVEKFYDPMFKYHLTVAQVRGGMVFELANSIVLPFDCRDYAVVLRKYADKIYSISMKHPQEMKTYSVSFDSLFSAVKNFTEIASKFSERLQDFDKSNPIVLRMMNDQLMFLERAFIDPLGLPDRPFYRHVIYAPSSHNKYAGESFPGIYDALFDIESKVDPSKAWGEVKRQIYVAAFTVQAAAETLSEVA

Substance: Anti PSMA antibody-PE conjugate from Biolegend (clone LNI-17 catalog #342504)
- MFI [1]: 13.7
- MFI [2]: 263
